Assay results reported in patent publication EP4741425A1 (Shenzhen Synthetica Pioneering Co., Ltd., dated 2026).

Biological target: T1, CXCR2 on the surface of neutrophils (primary neutrophils from blood of C57BL/6 mice) (mouse, UniProt P35343 1-359)
T1 construct: whole, on cells; No CXCR2-specific control is reported
T1 sequence (looked up): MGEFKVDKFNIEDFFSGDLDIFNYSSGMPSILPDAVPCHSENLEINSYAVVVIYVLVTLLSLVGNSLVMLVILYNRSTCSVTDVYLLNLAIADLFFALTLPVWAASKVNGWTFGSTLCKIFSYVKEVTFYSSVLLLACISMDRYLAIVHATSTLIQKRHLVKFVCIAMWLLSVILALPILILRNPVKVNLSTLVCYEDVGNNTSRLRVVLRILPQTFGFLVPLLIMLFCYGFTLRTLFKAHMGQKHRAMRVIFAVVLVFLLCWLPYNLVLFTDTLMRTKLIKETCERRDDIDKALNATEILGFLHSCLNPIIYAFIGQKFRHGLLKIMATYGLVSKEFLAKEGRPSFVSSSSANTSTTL
Experiment: flow cytometry on primary mouse blood neutrophils, anti-His tag PE detection

B1: Nb127D01 (VHH)
VHH: EVQLVESGGGLVQAGESLRLSCAASGSTFDFKVMGWYRQPPGKQREGVAAIRLSGNMHYAESVKGRFAISKANAKNTVYLQMNSLRPEDTAVYYCKVNIRGQDYWGQGTQVTVSS
notes: Expressed in E. coli BL21(DE3) as signal peptide + nanobody + HA-His tag and purified on a nickel column by the His tag; The signal peptide is left out here as a secretion signal; also called Nb127D01-HA-his; not shown: HA-His tag linked directly to the C-terminus
- binding result: binds

B2: Nb163E3 (VHH)
VHH: EVQLVESGGGLVQPGGSVRLSCVASGRIFSSNAMGWFRQAPGKEREFVAAITWRSGGSAYYADSAKGRFTISRDNAKNTVYLQMNSLKPEDTAVYYCAAGGSSWLSFPPDYWGQGTQVTVSS
notes: Expressed in E. coli BL21(DE3) as signal peptide + nanobody + HA-His tag and purified on a nickel column by the His tag; The signal peptide is left out here as a secretion signal; also called Nb163E3-HA-his; not shown: HA-His tag linked directly to the C-terminus
- binding result: binds
